Source: PMC4216055 (Carcinogenesis, 2014)
Substitutions are numbered along the chain they refer to.

B1: Human recombinant granulin-epithelin precursor (rGEP) (natural protein, UniProt P28799 14-593, looked up)
chain: LVAGTRCPDGQFCPVACCLDPGGASYSCCRPLLDKWPTTLSRHLGGPCQVDAHCSAGHSCIFTVSGTSSCCPFPEAVACGDGHHCCPRGFHCSADGRSCFQRSGNNSVGAIQCPDSQFECPDFSTCCVMVDGSWGCCPMPQASCCEDRVHCCPHGAFCDLVHTRCITPTGTHPLAKKLPAQRTNRAVALSSSVMCPDARSRCPDGSTCCELPSGKYGCCPMPNATCCSDHLHCCPQDTVCDLIQSKCLSKENATTDLLTKLPAHTVGDVKCDMEVSCPDGYTCCRLQSGAWGCCPFTQAVCCEDHIHCCPAGFTCDTQKGTCEQGPHQVPWMEKAPAHLSLPDPQALKRDVPCDNVSSCPSSDTCCQLTSGEWGCCPIPEAVCCSDHQHCCPQGYTCVAEGQCQRGSEIVAGLEKMPARRASLSHPRDIGCDQHTSCPVGQTCCPSLGGSWACCQLPHAVCCEDRQHCCPAGYTCNVKARSCEKEVVSAQPATFLARSPHVGVKDVECGEGHFCHDNQTCCRDNRQGWACCPYRQGVCCADRRHCCPAGFRCAARGTKCLRREAPRWDAPLRDPALRQLL
modifications: N-glycan (removed by PNGase F only for the gel analysis)
B2: rGEP-3A (rGEP with alanine mutations at RRH(555-557)) (natural protein, human, UniProt P28799 14-593, looked up)
chain: B1 chain with R542A, R543A, H544A

Target: the molecule itself
Assay: cross-linking

Row | Protein | binding result
1 | B1 | binds
2 | B2 | binds
